Experimental data from the Human Domainome abundance scans (Beltran et al. 2025).
± gives the uncertainty stated by the source.

B1: POU domain, class 2, transcription factor 2, residues 200 to 269; numbered along this chain, P09086 (parent)
chain: LEELEQFARTFKQRRIKLGFTQGDVGLAMGKLYGNDFSQTTISRFEALNLSFKNMCKLKPLLEKWLNDAE

Variants of: B1
Test: abundance fitness (aPCA) (normalised: wild type 0, dead -1); higher = more abundant; growth selection in yeast, the domain comes from the species named
Settings: Homo sapiens

Abundance fitness of substitutions, site by site:
P60: H -0.216 ± 0.14 | R -0.102 ± 0.035 | A -0.124 ± 0.044 | Y -0.378 ± 0.082 | K -0.295 ± 0.13 | Q -0.103 ± 0.059 | G -0.016 ± 0.044 | L -0.156 ± 0.036 | I 0.098 ± 0.069 | F -0.05 ± 0.079 | E -0.109 ± 0.048 | M -0.207 ± 0.076 | C -0.177 ± 0.059 | S -0.069 ± 0.057 | T -0.06 ± 0.052 | N -0.177 ± 0.1 | W -0.334 ± 0.065 | V -0.035 ± 0.036 | D -0.082 ± 0.077
K53: W -0.079 ± 0.058 | Y -0.092 ± 0.14
K57: E -0.05 ± 0.062 | Q -0.023 ± 0.061 | W -0.068 ± 0.048 | I -0.153 ± 0.085 | Y -0.089 ± 0.11 | D -0.47 ± 0.17 | V -0.088 ± 0.042 | R -0.064 ± 0.031 | S -0.067 ± 0.049 | N -0.125 ± 0.091 | G 0.002 ± 0.031 | P -0.44 ± 0.064 | C -0.058 ± 0.048 | M 0.01 ± 0.049 | T 0.024 ± 0.041 | A -0.057 ± 0.042 | L -0.08 ± 0.041
K64: H 0.041 ± 0.11 | I -0.158 ± 0.14 | C -0.117 ± 0.095 | W -0.257 ± 0.072 | Q 0.008 ± 0.052 | A 0.081 ± 0.084 | Y -0.24 ± 0.073 | S -0.084 ± 0.073 | V -0.048 ± 0.054 | N -0.232 ± 0.11 | D 0.003 ± 0.09 | P -0.343 ± 0.067 | M -0.096 ± 0.069 | E -0.016 ± 0.064 | R -0.054 ± 0.037 | L -0.049 ± 0.046
C56: K 0.015 ± 0.055 | S -0.029 ± 0.042 | Y -0.196 ± 0.068 | W -0.046 ± 0.04 | T 0.053 ± 0.042 | Q 0.062 ± 0.067 | G -0.055 ± 0.029 | E 0.002 ± 0.045 | H -0.082 ± 0.092 | D -0.052 ± 0.057 | A -0.022 ± 0.033 | R 0.014 ± 0.029 | N -0.064 ± 0.083 | V -0.029 ± 0.038 | L 0.007 ± 0.03 | I -0.09 ± 0.062 | F -0.034 ± 0.052
L61: C 0.026 ± 0.048 | A -0.043 ± 0.041 | M -0.031 ± 0.044 | Q 0.013 ± 0.042 | H -0.064 ± 0.079 | R -0.038 ± 0.031 | K 0.032 ± 0.056 | T 0.008 ± 0.04 | I -0.141 ± 0.1 | Y -0.082 ± 0.15 | F 0.05 ± 0.096 | G -0.093 ± 0.032 | S -0.038 ± 0.04 | V -0.064 ± 0.032 | D -0.006 ± 0.14 | P -0.027 ± 0.032
W65: M -0.309 ± 0.12 | Q -0.843 ± 0.18 | S -0.522 ± 0.11 | T -0.362 ± 0.061 | A -0.469 ± 0.063 | Y -0.128 ± 0.093 | C -0.243 ± 0.06 | G -0.71 ± 0.088 | E -0.923 ± 0.17 | K -0.716 ± 0.16 | R -0.628 ± 0.066 | P -0.433 ± 0.15 | V -0.198 ± 0.065
M55: T -0.213 ± 0.036 | I -0.175 ± 0.061 | C -0.439 ± 0.13 | F -0.127 ± 0.06 | W -0.24 ± 0.037 | H -0.164 ± 0.075 | L -0.021 ± 0.027 | V -0.142 ± 0.033 | E -0.512 ± 0.049 | N -0.463 ± 0.078 | Y -0.135 ± 0.071 | G -0.097 ± 0.029 | R -0.502 ± 0.028 | D -0.435 ± 0.078 | A -0.022 ± 0.023
K59: C -0.14 ± 0.066 | E -0.293 ± 0.047 | A -0.086 ± 0.054 | F -0.14 ± 0.094 | P -0.761 ± 0.12 | V -0.031 ± 0.036 | I 0.001 ± 0.13 | Q -0.094 ± 0.076 | T -0.167 ± 0.049 | H -0.098 ± 0.14 | R -0.078 ± 0.047 | L -0.069 ± 0.035 | N -0.435 ± 0.11 | G -0.079 ± 0.038 | W -0.078 ± 0.054
E70: G -0.072 ± 0.069 | R -0.164 ± 0.052 | T -0.086 ± 0.089 | F -0.2 ± 0.19 | H -0.341 ± 0.15 | K -0.128 ± 0.085 | S 0.071 ± 0.084 | N -0.066 ± 0.16 | C -0.092 ± 0.12 | D 0.054 ± 0.054 | V -0.035 ± 0.042 | M -0.072 ± 0.11 | Q -0.07 ± 0.072 | Y -0.195 ± 0.11 | P -0.253 ± 0.22 | A -0.047 ± 0.07 | W -0.073 ± 0.065
D68: Q -0.063 ± 0.079 | V -0.054 ± 0.043 | P -0.349 ± 0.03 | F 0.085 ± 0.11 | Y -0.076 ± 0.074 | C -0.053 ± 0.066 | E -0.047 ± 0.052 | W -0.147 ± 0.06 | R -0.022 ± 0.029 | H -0.205 ± 0.14 | I -0.22 ± 0.088 | K -0.015 ± 0.044
L62: Y -0.076 ± 0.17 | A -0.166 ± 0.04 | I 0.014 ± 0.096 | K -0.896 ± 0.15 | G -0.744 ± 0.064 | V -0.043 ± 0.049 | C -0.096 ± 0.1 | Q -0.843 ± 0.18
